Here are results for 1 molecule from patent US20220251222A1 (Johns Hopkins, published 2022).

In experiment [1] the target is T1, IL-8RB expressed on lentivirally transduced HEK 293T cells (UniProt P25025 1-360, limits assumed).
T1 construct: whole, on cells; also called IL-8R^+ cells; IL-6Rα^-/IL-8R^+ HEK 293T cells
T1 sequence (looked up): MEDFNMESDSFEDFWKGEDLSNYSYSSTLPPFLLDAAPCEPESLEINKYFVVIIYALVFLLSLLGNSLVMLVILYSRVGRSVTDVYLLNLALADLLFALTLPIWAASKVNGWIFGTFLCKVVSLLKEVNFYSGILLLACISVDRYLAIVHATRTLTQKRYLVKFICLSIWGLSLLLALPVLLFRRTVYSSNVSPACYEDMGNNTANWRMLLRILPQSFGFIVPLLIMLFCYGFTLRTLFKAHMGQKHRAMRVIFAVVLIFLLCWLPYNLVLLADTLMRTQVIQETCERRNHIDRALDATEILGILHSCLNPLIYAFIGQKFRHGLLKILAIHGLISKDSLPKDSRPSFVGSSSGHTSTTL
In words: competition with 400 nM His-tagged IL-8 on IL-6Rα-/IL-8R+ HEK 293T cells, flow cytometry. As to the method:
IL-6Rα⁺/IL-8R⁻ and IL-6Rα⁻/IL-8R⁺ HEK 293T cells were cultured as previously described, and were trypsinized, resuspended in PBSA, and aliquoted into 96-well plates (2×10⁵ cells per well). IL-6Rα⁺/IL-8R⁻ 293T cells were incubated with titrations of various monoclonal or bispecific antibodies in the presence of saturating concentration of biotinylated IL-6 (100 nM) (Acro Biosystem, cat #: IL6-H8218-25UG) for 2 hr at 4° C. with rotation. Cells were then washed and incubated with 1:200 dilution of Alexa Fluor 647-conjugated streptavidin (Fisher Scientific, cat #: S21374) in PBSA for 15 min at 4° C. After a final wash, cells were resuspended in PBSA and analyzed on a CytoFLEX flow cytometer (Beckman Coulter). Curves were fitted to a first-order logistic model and IC₅₀ values were calculated using GraphPad Prism data analysis software. Mean fluorescence intensity (MFI) of unstimulated cells was subtracted. Similarly, IL-6Rα⁻/IL-8R⁺ 293T cells were incubated with titrations of various monoclonal or bispecific antibodies with saturating concentration of His-tagged IL-8 (400 nM) (Sino Biological, cat #: 10098-H08Y-100) for 2 hr at 4° C. with rotation. […] After a final wash, cells were resuspended in PBSA and analyzed on a CytoFLEX flow cytometer (Beckman Coulter). Curves were fitted to a first-order logistic model and IC₅₀ values were calculated using GraphPad Prism data analysis software. […]
On the technique in general: Flow cytometry measures light scatter and fluorescence of single cells or particles in a stream.

Experiment [2] concerns the target T1, IL-8RB expressed on lentivirally …. The experiment is described as follows: flow cytometry titration on IL-6Rα+/IL-8R+ HEK 293T cells; IL-6Rα+/IL-8R+ 293T cells (FIG. 7C). Here is the method: (§1) HEK 293T cells were cultured in Dulbecco's modified Eagle's medium (DMEM, Mediatech) supplemented with 10% (Hyclone), 2 mM L-glutamine and 100 U/mL penicillin-streptomycin (Gibco). For surface binding assays, IL-6Rα⁺/IL-8R⁻, IL-6Rα⁻/IL-8R⁺, IL-6Rα⁺/IL-8R⁺, and […] HEK 293T cells were trypsinized for detachment, resuspended in PBSA, and then aliquoted into 96-well plates (1×10⁵ cells per well). Cells were incubated with titrations of various monoclonal or bispecific antibodies for 2 hr at 4° C. with rotation. Cells were then washed and incubated with a 1:50 dilution of fluorescein isothiocyanate (FITC)-conjugated anti-human IgG1 antibody (Sigma-Aldrich, Clone 8c/6-39) in PBSA for 15 min at 4° C. After a final wash, cells were resuspended in PBSA and analyzed on a CytoFLEX flow cytometer (Beckman Coulter). Binding isotherms were fitted to a first-order logistic model and KD values were calculated using GraphPad Prism data analysis software. Mean fluorescence intensity (MFI) of unstimulated cells was subtracted. […]
(§2) To determine whether engineered bispecific binding agents BS1 and BS2 specifically engage target antigens in a physiologically relevant context, antibody binding to IL-6Rα⁺/IL-8R⁻, IL-6Rα⁻/IL-8R⁺, IL-6Rα⁺/IL-8R⁺, and IL-6Rα⁻/IL-8R⁻ lentivirally transduced HEK 293T cells was measured via flow cytometry. […]

Experiment [3] concerns the target T2, IL-6Rα expressed on lentivirally transduced HEK 293T cells (UniProt P08887 20-468, limits assumed).
T2 construct: whole, on cells; also called IL-6Rα^+ cells; IL-6Rα^+/IL-8R^- HEK 293T cells
T2 sequence (looked up): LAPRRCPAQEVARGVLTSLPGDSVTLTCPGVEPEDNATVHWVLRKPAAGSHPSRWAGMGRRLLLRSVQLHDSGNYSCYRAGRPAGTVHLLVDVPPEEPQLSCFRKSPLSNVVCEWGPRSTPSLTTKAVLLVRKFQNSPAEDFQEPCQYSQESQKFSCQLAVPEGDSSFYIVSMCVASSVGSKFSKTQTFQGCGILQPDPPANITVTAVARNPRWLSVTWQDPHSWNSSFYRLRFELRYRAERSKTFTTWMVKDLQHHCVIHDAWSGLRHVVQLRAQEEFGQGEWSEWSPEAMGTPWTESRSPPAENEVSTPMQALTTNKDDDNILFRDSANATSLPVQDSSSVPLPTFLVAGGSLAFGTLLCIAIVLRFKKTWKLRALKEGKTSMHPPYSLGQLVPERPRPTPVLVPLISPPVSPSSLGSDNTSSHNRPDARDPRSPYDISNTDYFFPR
The experiment is described as follows: flow cytometry binding titration on IL-6R+/IL-8R- HEK 293T cells, detected with FITC anti-human IgG1. As to the method:
as §1, §2

The target of experiment [4] is T1, IL-8RB expressed on lentivirally …. The experiment is described as follows: flow cytometry binding titration on IL-6R-/IL-8R+ HEK 293T cells, detected with FITC anti-human IgG1. Here is the method: as §1, §2
Experiment [5] concerns the target T3, human IL-6Rα extracellular domain (ECD), residues 89-303 of the mature protein, with C-terminal biotin … (human, UniProt P08887 108-322, biotinylated with BirA ligase on the biotin acceptor peptide).
T3 construct: range 89-303; The range 89-303 counts on the mature protein, not on the precursor; Any linkers between the ECD, BAP and His tag are not described; also called IL-6Rα ECD; recombinant IL-6Rα
T3 sequence: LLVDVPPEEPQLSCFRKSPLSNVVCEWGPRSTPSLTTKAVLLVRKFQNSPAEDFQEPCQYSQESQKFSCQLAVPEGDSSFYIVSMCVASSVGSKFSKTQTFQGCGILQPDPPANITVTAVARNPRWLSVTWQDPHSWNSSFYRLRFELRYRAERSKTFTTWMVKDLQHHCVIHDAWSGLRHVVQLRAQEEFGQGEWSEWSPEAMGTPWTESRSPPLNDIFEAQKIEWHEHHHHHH
The experiment is described as follows: equilibrium bio-layer interferometry titration, biotinylated human IL-6Rα ECD immobilized on streptavidin tips. As to the method:
Biotinylated human IL-6Rα ECD was immobilized to streptavidin-coated tips for analysis on an Octet® Red96 BLI instrument (ForteBio). Less than 5 signal units (nm) of receptor was immobilized to minimize mass transfer effects. Tips were exposed to serial dilutions of the anti-IL-6R antibody tocilizumab, the anti-IL-8R antibody 10H2, BS1, or BS2 in a 96-well plate for 300 s and dissociation was measured for 600 s. Surface regeneration for all interactions was conducted using 15 s exposure to 0.1 M glycine pH 3.0. Experiments were carried out in PBSA (phosphate-buffered saline [PBS] pH 7.3 plus 0.1% bovine serum albumin [BSA, Thermo]) at 25° C. Data was visualized and processed using the Octet® Data Analysis software version 7.1 (ForteBio). Equilibrium titration curve fitting and equilibrium dissociation constant (KD) value determination was implemented in GraphPad Prism software using a first-order logistic model. Experiments were reproduced two times with similar results.
To confirm functionality of our bispecific agents, antibodies were titrated against recombinant IL-6Rα via BLI. […] Moreover, both tocilizumab-containing engineered bispecific binding agents also bound IL-6Rα (FIG. 5).

B1: 10H2, recombinant monoclonal hIgG1 (anti-IL-8RB) (antibody, V domains shown)
VH: EVQLVETGGRLVQPKGSLKLSCAVSGITFKTNAMNWVRQAPGKGLEWVARIRTKSYNYATYYADSVKDRFTISRDDSQSILYLQMNNLKTEDTAMYHCVREGRWGQGTLVTVSA
VL: QAVVTQESALTTSPGETVTLTCRSSTGAVTTSNYANWVQEKPDHLFTGLIGGTNNRPPGVPARFSGSLIGDKAALTITGAQIEDEAIYFCALWYSNHLVFGGGTKLTVL
notes: also called anti-IL-8RB antibody
Regarding B1, in experiment [1], the IC50 (as a rule, the concentration that gives 50% inhibition) is 22 nM. Also, the Kd (as a rule, the equilibrium constant for the complex coming apart) in experiment [2] was 4.1 nM. Also, the results for the binding result in experiment [3] and in experiment [5] were “no binding (tested: 1e-6 M)” and “no binding (tested: about 5e-7 M)”, respectively. Also, in experiment [4], the EC50 (read off the curve) (in general, the concentration giving half of the maximal effect) is around 4 nM.
